Laboratory results from patent US20110136850A1.

Experiments:
[1] = target: topoisomerase I from H358 cells (serine-phosphorylated) (human) (UniProt P11387); experiment: IP/Western analysis, FIG. 5D upper panel
[2] = target: topoisomerase I from H358 cells (serine-phosphorylated) (human) (UniProt P11387); experiment: IP/Western analysis, FIG. 5D upper panel lane 5
[3] = target: topoisomerase I from H358 cells (serine-phosphorylated) (human) (UniProt P11387); experiment: co-immunoprecipitation followed by Western analysis, 48 hours after Adp14 (moi 20 pfu/cell)

Chain of topoisomerase I from H358 cells (serine-phosphorylated) (human) (P11387 2-765 limits assumed): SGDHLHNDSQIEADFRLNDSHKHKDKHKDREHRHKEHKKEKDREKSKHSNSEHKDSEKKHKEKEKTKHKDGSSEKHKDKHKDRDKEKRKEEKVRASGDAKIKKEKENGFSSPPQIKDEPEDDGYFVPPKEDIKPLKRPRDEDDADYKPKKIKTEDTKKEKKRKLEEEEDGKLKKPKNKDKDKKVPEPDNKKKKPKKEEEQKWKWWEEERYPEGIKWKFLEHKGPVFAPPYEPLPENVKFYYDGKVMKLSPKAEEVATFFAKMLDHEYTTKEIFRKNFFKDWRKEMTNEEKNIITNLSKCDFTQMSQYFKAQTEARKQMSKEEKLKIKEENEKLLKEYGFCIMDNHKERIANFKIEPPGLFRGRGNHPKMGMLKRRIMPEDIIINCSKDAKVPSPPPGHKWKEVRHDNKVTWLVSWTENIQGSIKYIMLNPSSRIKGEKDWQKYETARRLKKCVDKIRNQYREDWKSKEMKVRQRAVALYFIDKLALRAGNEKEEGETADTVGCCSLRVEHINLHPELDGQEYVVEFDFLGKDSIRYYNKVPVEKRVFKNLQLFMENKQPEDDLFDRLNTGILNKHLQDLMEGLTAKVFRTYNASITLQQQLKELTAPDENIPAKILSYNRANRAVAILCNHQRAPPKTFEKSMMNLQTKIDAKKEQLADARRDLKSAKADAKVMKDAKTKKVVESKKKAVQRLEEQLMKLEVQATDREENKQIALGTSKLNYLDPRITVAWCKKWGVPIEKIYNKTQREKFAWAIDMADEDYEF

p14ARF (ARF), cellular protein in nuclear extracts (endogenous or expressed from the Adp14 adenoviral vector) (from UniProt Q8N726 1-132)
3 fold: fold increase in ARF/topoisomerase I complex formation in Adp14-treated H358 cells against Ad1β-treated, control siRNA treated, or non-vector treated cells [1] | fold decrease in ARF/topoisomerase I complex formation in ARF siRNA-treated H358 cells [2] | fold increase of co-immunoprecipitated ARF-topoisomerase I complexes after Adp14 treatment against untreated H358 cells [3]
